Results as given in US20210171611A1 (SEOUL NATIONAL UNIVERSITY R AND DB FOUNDATION, published 2021).

B1: Ab8 scFv (scFv)
scFv: ELALTQPPSVSVAPAMTAKITCGGDDIGSTTVQWYQQTSGQAPVLVVYDDSDRPSGIPERFSGANSGNTATLTISRVEAGDEADYYCQVWDGRSDHVVFGGGTKLTVLGGGSSRSSSSGGGGSGGGGQVQLVQSGAEVKKPGESLKISCKGSGYIFTNYWIGWVRQMPGKGLEWMGIIYPGDSDTRYSPSFQGQVTISADRSISTANLQWSSLKASDTALYYCARLKLRGFSGGYGSGRRYFDYWGQGTLVTVSS
B2: Ab9 scFv (scFv)
scFv: ELELTQPPSVSGTPGKRVSMSCSGSRSNIGGNVVNWYQQLPGKAPKLFIYNNDQRPSGVPDRVSGSKSGTSVSVAISGLQPEDEADYYCAAWDDILNGVVFGGGTQLTVLGGGSSRSSSSGGGGSGGGGQVQLVQSGAEVKKPGESLKISCKGSGYNFTNYWIGWVRQLPGKGLEWMGIIYPGDSDTRYSPSFQGQVTISADKSISTAYLQWSSLKASDTAMYYCARIRVIGFYDSSPPPLFDYWGQGTLVTVSS
B3: Ab10 scFv (scFv)
scFv: ELVMTQSPSSLSASVGDTVTITCRASQSIYTYLNWYHQTPGKAPKLLISAASSLQSGVPSRFSGSGSGTDFTLTISSLQPEDFATYYCQQYADVPVTFGGGTKLEIKGGSSRSSSSGGGGSGGGGEVQLVESGGGVVQPGRSLRLSCAASGFTFSGYGIHWVRQAPGKGLEWVALISYDGSNKYYADSVKGRFTISRDNSKNTLYLQMNSLRAEDTAVYYCAKDRDYFGSGFFDYWGQGTLVTVSS

Target: T1, recombinant SFTS virus glycoprotein Gn fused to human Ig k-chain constant region (severe fever with thrombocytopenia …, UniProt P01834 1-107)
T1 construct: also called Gn-Ck
Test: ELISA on recombinant glycoprotein (Gn-Ck coated, Example 5)

Binder | binding result
B1 | binds
B2 | binds
B3 | binds
